Assay [1] deals with TGF-β2DM:TβRII binary complex (human) (UniProt P37173). Put plainly: SEC-MALS.
For assay [2], the target named is human TGF-β2 (human). Put plainly: SPR. On the technique in general: SPR reads the build-up and loss of mass on a sensor chip optically.
Assay [3] has as its target human TGF-β2 (human). In words: SPR. The source holds these as a separate data set.
Assay [4] deals with TβRII ECD (Homo sapiens) (UniProt P37173). As to conditions: cited from earlier work.

Like-named read-outs stand apart in the source and are kept apart here.

Chain of TβRII ECD (Homo sapiens) (P37173 23-166): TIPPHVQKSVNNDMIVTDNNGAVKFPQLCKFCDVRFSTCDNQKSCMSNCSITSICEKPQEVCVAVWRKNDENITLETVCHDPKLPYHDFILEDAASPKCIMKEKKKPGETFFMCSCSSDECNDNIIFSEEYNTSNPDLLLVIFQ

One may read the Kd as the free concentration of one partner at which half of the binding sites on the other are occupied at equilibrium, for simple one-to-one binding. As a reminder, the koff is the first-order rate constant of dissociation. Lower therefore signals a long-lived complex. Broadly, the kon is the rate constant with which the complex forms. Read a low kon as slower complex formation. For “zebrafish betaglycan orphan domain (domain or fragment)”, the stoichiometry N (BGO per TGF-β2DM dimer) in assay [1] amounted to 1. In assay [2], this substance gave a Kd of 15 nM, a koff of 0.00772 s⁻¹ and a kon of 528000 M⁻¹ s⁻¹. In assay [3], this substance registered a Kd of 27 nM, a koff of 0.0288 s⁻¹ and a kon of 1.07e+06 M⁻¹ s⁻¹.
In assay [1], “full-length zebrafish betaglycan ectodomain (domain or fragment)” registered a stoichiometry N (BG (O-ZP) per TGF-β2DM dimer) of 1. In addition, in assay [3], the Kd is 4.95 nM, the koff was 0.00173 s⁻¹ and the kon stood at 350000 M⁻¹ s⁻¹.
On to TGF-β2 (from UniProt P61812), for which the Kd in assay [4] was 20 µM.
In assay [3], “zebrafish betaglycan ZP-C domain (domain or fragment)” had a KD1 (heterogeneous-ligand fit, ligand class 1) of 1100 nM; a KD2 (heterogeneous-ligand fit, ligand class 2) of 480 nM; a ka1 (heterogeneous-ligand fit, ligand class 1) of 480000 M⁻¹ s⁻¹; a kd1 (heterogeneous-ligand fit, ligand class 1) of 0.51 s⁻¹. This substance also had a kd2 (heterogeneous-ligand fit, ligand class 2) in assay [3] of 9300 s⁻¹.

The record behind these values is publication PMC6726503.
